In IntAct's records for PubMed 23454120:

B1: Rho-related GTP-binding protein RhoD (Mus musculus), P97348 (parent)
chain: MNASQVAGEEAPQSGHSVKVVLVGDGGCGKTSLMMVFAKGAFPESYSPTVFERYNATLQMKGKPVHLQIWDTAGQDDYDRLRPLFYPDANVLLLCFDVTNPNSFDNVSNRWYPEVTHFCKGVPIIVVGCKIDLRKDKVLVNNLRKKRLEPVTYHRGHDMARSVGAVAYLECSARLHDNVEAVFQEAAEVALSSRRHNFWRRITQNCCLAT

Variants of: B1
Conditions: with dapk3_human DAPK3, O43293
dapk3_human DAPK3, O43293, sequence (O43293 whole entry, looked up): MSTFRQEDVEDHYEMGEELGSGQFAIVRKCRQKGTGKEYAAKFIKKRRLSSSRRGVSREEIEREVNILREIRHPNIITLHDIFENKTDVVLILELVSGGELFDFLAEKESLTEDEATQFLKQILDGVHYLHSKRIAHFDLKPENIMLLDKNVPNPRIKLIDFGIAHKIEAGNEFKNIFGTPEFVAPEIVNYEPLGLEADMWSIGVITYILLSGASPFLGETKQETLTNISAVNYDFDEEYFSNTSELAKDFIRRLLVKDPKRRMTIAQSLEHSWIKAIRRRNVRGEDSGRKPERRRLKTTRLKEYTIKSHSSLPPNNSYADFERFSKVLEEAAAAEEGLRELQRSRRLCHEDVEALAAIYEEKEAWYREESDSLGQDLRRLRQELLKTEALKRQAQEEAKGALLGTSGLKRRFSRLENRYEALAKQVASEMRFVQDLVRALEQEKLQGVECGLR

Row | Variant | effect of a mutation on the interaction
1 | T31N | disrupting interaction
